Laboratory results taken from the Immune Epitope Database (IEDB).
Blank lines part the entries; values can stand above or below the sequence they belong to.

How the values were obtained:
HLA-A*01:01 = test: IEDB peptide-MHC binding, purified MHC/direct/fluorescence; filed as Kd, often an IC50 or EC50 that approximates it; ≥ and ≤ were set here for values at or beyond the usual limits of such assays
HLA-A*02:01 [1] = test: as above; settings: source organism: Brucella abortus 2308
HLA-A*03:01 [2] = test: as above
HLA-A*11:01 = test: as above
HLA-A*26:01 = test: as above
HLA-A*31:01 [3] = test: as above
HLA-A*69:01 = test: as above
HLA-B*07:02 [4] = test: as above
HLA-B*08:01 [5] = test: as above
HLA-B*15:01 [6] = test: as above
HLA-B*27:05 [7] = test: as above
HLA-B*40:01 = test: as above
HLA-B*44:02 = test: as above; settings: source organism: Brucella abortus 2308
HLA-B*58:01 = test: as above
HLA-B*73:01 [8] = test: as above
HLA-B*27:05 [9] = test: IEDB peptide-MHC binding, purified MHC/competitive/fluorescence; filed as Kd, often an IC50 or EC50 that approximates it; ≥ and ≤ were set here for values at or beyond the usual limits of such assays; settings: source organism: Mycobacterium tuberculosis variant bovis BCG str. Pasteur 1173P2
HLA-B*15:17 [10] = test: IEDB peptide-MHC binding, purified MHC/direct/fluorescence; filed as Kd, often an IC50 or EC50 that approximates it; ≥ and ≤ were set here for values at or beyond the usual limits of such assays; settings: source organism: Camelpox virus CMS
HLA-B*18:01 = test: as above
HLA-B*38:01 = test: as above; settings: source organism: Variola virus
HLA-B*48:01 [11] = test: as above
HLA-B*51:01 = test: as above; settings: source organism: Camelpox virus CMS
HLA-B*57:01 = test: as above
HLA-A*02:01 [12] = test: IEDB peptide-MHC binding, purified MHC/competitive/fluorescence; filed as Kd, often an IC50 or EC50 that approximates it; ≥ and ≤ were set here for values at or beyond the usual limits of such assays
HLA-B*08:01 [13] = test: as above; settings: source organism: Ectromelia virus
HLA-B*15:01 [14] = test: as above
HLA-B*15:09 = test: as above; settings: source organism: Ectromelia virus
HLA-C*07:02 = test: IEDB peptide-MHC binding, purified MHC/direct/fluorescence; filed as Kd, often an IC50 or EC50 that approximates it; ≥ and ≤ were set here for values at or beyond the usual limits of such assays; settings: source organism: Mus musculus
HLA-B*15:42 = test: IEDB peptide-MHC binding, purified MHC/competitive/fluorescence; filed as Kd, often an IC50 or EC50 that approximates it; ≥ and ≤ were set here for values at or beyond the usual limits of such assays; settings: source organism: Mus musculus
HLA-B*27:20 = test: as above; settings: source organism: Mus musculus
HLA-B*45:06 = test: as above; settings: source organism: Mus musculus
HLA-B*73:01 [15] = test: as above; settings: source organism: Mus musculus
HLA-C*06:02 [16] = test: as above; settings: source organism: Mus musculus
HLA-C*06:02 [17] = test: IEDB peptide-MHC binding, purified MHC/direct/fluorescence; filed as Kd, often an IC50 or EC50 that approximates it; ≥ and ≤ were set here for values at or beyond the usual limits of such assays; settings: source organism: Escherichia coli
HLA-A*03:01 [18] = test: IEDB peptide-MHC binding, purified MHC/competitive/fluorescence; filed as Kd, often an IC50 or EC50 that approximates it; ≥ and ≤ were set here for values at or beyond the usual limits of such assays; settings: source organism: Escherichia coli
HLA-A*31:01 [19] = test: as above; settings: source organism: Escherichia coli
HLA-C*04:01 = test: IEDB peptide-MHC binding, purified MHC/direct/fluorescence; filed as Kd, often an IC50 or EC50 that approximates it; ≥ and ≤ were set here for values at or beyond the usual limits of such assays; settings: source organism: Leishmania major strain Friedlin
HLA-A*26:03 = test: as above; settings: source organism: Ravn virus - Ravn, Kenya, 1987
HLA-B*08:02 = test: as above; settings: source organism: Ravn virus - Ravn, Kenya, 1987
HLA-B*39:01 = test: as above; settings: source organism: Marburg virus - Musoke, Kenya, 1980
HLA-B*46:01 = test: as above; settings: source organism: Marburg virus - Musoke, Kenya, 1980
HLA-A*30:01 = test: IEDB peptide-MHC binding, purified MHC/competitive/fluorescence; filed as Kd, often an IC50 or EC50 that approximates it; ≥ and ≤ were set here for values at or beyond the usual limits of such assays; settings: source organism: Orthomarburgvirus marburgense
HLA-A*68:02 = test: as above; settings: source organism: Orthomarburgvirus marburgense
HLA-B*07:02 [20] = test: as above; settings: source organism: Orthomarburgvirus marburgense
HLA-B*15:17 [21] = test: as above; settings: source organism: Orthomarburgvirus marburgense
HLA-B*48:01 [22] = test: as above; settings: source organism: Orthomarburgvirus marburgense
[23] = source organism: Brucella abortus 2308
[24] = source organism: Brucella melitensis
[25] = source organism: Camelpox virus CMS
[26] = source organism: Ectromelia virus
[27] = source organism: Toxoplasma gondii
[28] = source organism: Marburg virus - Musoke, Kenya, 1980

Sequence: KRASGDPYF
Kd (HLA-A*01:01; [23]): ≥ 20 µM
Kd (HLA-A*02:01 [1]): ≥ 20 µM
Kd (HLA-A*03:01 [2]; [23]): ≥ 20 µM
Kd (HLA-A*11:01; [23]): ≥ 20 µM
Kd (HLA-A*26:01; [23]): ≥ 20 µM
Kd (HLA-A*31:01 [3]; [23]): ≥ 20 µM
Kd (HLA-A*69:01; [23]): ≥ 20 µM
Kd (HLA-B*07:02 [4]; [23]): ≥ 20000 nM
Kd (HLA-B*08:01 [5]; [23]): ≥ 20 µM
Kd (HLA-B*15:01 [6]; [23]): ≥ 20 µM
Kd (HLA-B*27:05 [7]; [24]): 2790 nM
Kd (HLA-B*40:01; [23]): ≥ 20 µM
Kd (HLA-B*44:02): ≥ 20 µM
Kd (HLA-B*58:01; [24]): 5.93 µM
Kd (HLA-B*73:01 [8]; source organism: Brucella suis ATCC 23445): ≥ 20000 nM

Sequence: GRAVSSATF
Kd (HLA-B*27:05 [9]): 141 nM

Sequence: VIARTHTAL
Kd (HLA-A*01:01; [25]): ≥ 20 µM
Kd (HLA-A*03:01 [2]; [25]): ≥ 20 µM
Kd (HLA-A*11:01; [25]): ≥ 20 µM
Kd (HLA-A*26:01; source organism: Variola virus): ≥ 20 µM
Kd (HLA-A*31:01 [3]; [25]): ≥ 20 µM
Kd (HLA-A*69:01; [25]): ≥ 20 µM
Kd (HLA-B*07:02 [4]; [25]): 58.3 nM
Kd (HLA-B*15:17 [10]): ≥ 20 µM
Kd (HLA-B*18:01; [25]): ≥ 20 µM
Kd (HLA-B*27:05 [7]; [25]): ≥ 20000 nM
Kd (HLA-B*38:01): ≥ 20 µM
Kd (HLA-B*40:01; [25]): ≥ 20 µM
Kd (HLA-B*48:01 [11]; [25]): ≥ 20 µM
Kd (HLA-B*51:01): ≥ 20 µM
Kd (HLA-B*57:01; [25]): ≥ 20 µM
Kd (HLA-B*58:01; [25]): ≥ 20 µM
Kd (HLA-A*02:01 [12]; [26]): ≥ 20000 nM
Kd (HLA-B*08:01 [13]): 51.8 nM
Kd (HLA-B*15:01 [14]; [26]): 785 nM
Kd (HLA-B*15:09): ≥ 20 µM

Kd (HLA-C*07:02): 30 nM
Kd (HLA-B*15:42): ≥ 5 µM
Kd (HLA-B*27:20): 0.2 nM
Kd (HLA-B*45:06): ≥ 5 µM
Kd (HLA-B*73:01 [15]): 689 nM
Kd (HLA-C*06:02 [16]): 3.8 nM
Sequence: FRMLAWHVL

Sequence: WRMVVRASF
Kd (HLA-B*27:05 [7]; [27]): 8 nM
Kd (HLA-B*48:01 [11]; [27]): ≥ 20 µM
Kd (HLA-B*73:01 [8]; [27]): 1340 nM

Kd (HLA-C*06:02 [17]): ≥ 20 µM
Kd (HLA-A*03:01 [18]): ≥ 20 µM
Kd (HLA-A*31:01 [19]): 2.1 nM
Kd (HLA-B*15:01 [14]; source organism: Escherichia coli): ≥ 20000 nM
Sequence: RYWRLRYRI

Sequence: TRDPNLAYI
Kd (HLA-C*04:01): ≥ 20 µM

Sequence: YHLGGIEGL
Kd (HLA-A*01:01; [28]): ≥ 20 µM
Kd (HLA-A*26:03): ≥ 20 µM
Kd (HLA-A*69:01; [28]): 2.41 µM
Kd (HLA-B*08:01 [5]; source organism: Ravn virus - Ravn, Kenya, 1987): ≥ 20 µM
Kd (HLA-B*08:02): ≥ 20 µM
Kd (HLA-B*15:01 [6]; [28]): ≥ 20 µM
Kd (HLA-B*18:01; [28]): ≥ 20 µM
Kd (HLA-B*27:05 [7]; [28]): ≥ 20000 nM
Kd (HLA-B*39:01): 40.3 nM
Kd (HLA-B*40:01; [28]): ≥ 20 µM
Kd (HLA-B*46:01): ≥ 20 µM
Kd (HLA-B*57:01; [28]): ≥ 20 µM
Kd (HLA-B*58:01; [28]): ≥ 20 µM
Kd (HLA-A*02:01 [12]; source organism: Orthomarburgvirus marburgense): 7 nM
Kd (HLA-A*30:01): ≥ 20 µM
Kd (HLA-A*68:02): 1440 nM
Kd (HLA-B*07:02 [20]): ≥ 20 µM
Kd (HLA-B*15:17 [21]): ≥ 20 µM
Kd (HLA-B*48:01 [22]): 155 nM
